Measured values from PMC7022778.

Target: catalase from Serratia sp. strain I1P (Serratia sp. strain I1P)
Experiment: SEC; Superdex-200 in 50 mM Tris HCl pH 8.0 with 0.2 M NaCl, calibrated with standard proteins; native apparent mass compared with the subunit mass by SDS-PAGE

In the case of “catalase from Serratia sp. strain I1P (enzyme)”, the stoichiometry N is reported as 4.
